Measurements as given in US20110206616A1.

Target: SNAP 25 (endogenous, rat neuronal cells) (rat) (UniProt P60881)
Test: cell-based or functional assay

Chain of UniProt P60881 (P60881 whole entry): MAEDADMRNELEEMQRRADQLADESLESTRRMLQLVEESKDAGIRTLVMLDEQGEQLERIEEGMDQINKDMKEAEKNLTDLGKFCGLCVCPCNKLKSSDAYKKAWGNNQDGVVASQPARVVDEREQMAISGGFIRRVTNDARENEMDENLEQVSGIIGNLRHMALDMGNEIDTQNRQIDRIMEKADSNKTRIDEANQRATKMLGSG

Q: For “BoNT/Aad^ek, AcTEV- and enterokinase-processed disulfide-bonded LC-HC heterodimer (from UniProt P0DPI1 2-449; P0DPI0 449-1296)”, which cleavage of intracellular SNAP 25 (none detectable at the concentration tested) is on record?
A: 500 nM
